{
  "source": "paper PMC2526197",
  "about": "(The Journal of Experimental Medicine, 2008)",
  "experiment_in_all_cases": "SPR",
  "key": {"Evasin-1": {"target": "T1, Evasin-1 (Rhipicephalus sanguineus, UniProt P0C8E7 21-114)", "T1 sequence (looked up)": "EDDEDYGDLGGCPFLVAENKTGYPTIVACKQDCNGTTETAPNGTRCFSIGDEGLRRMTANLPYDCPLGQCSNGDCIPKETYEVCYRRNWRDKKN"}, "CXCL1": {"target": "T2, CXCL1 (human, UniProt P09341 35-107)", "T2 sequence (looked up)": "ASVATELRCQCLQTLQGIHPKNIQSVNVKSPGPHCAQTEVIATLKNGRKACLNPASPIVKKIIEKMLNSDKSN"}, "KC": {"target": "T3, KC (mouse, UniProt P12850 25-96)", "T3 sequence (looked up)": "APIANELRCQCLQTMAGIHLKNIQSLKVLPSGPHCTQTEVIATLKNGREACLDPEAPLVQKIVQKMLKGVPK"}, "MIP-2": {"target": "T4, MIP-2 (mouse, UniProt P10889 28-100)", "T4 sequence (looked up)": "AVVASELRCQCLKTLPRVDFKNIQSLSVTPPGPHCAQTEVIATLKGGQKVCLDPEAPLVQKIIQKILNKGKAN"}},
  "data": [
    {"binder": "CCL3 (ligand, human, UniProt P10147 24-92, looked up) SLAADTPTACCFSYTSRQIPQNFIADYFETSSQCSKPGVIFLTKRSRQVCADPSEEWVQKYVSDLELSA", "values": [
      {"measurement": "Kd", "setting": "Evasin-1", "value": 0.12, "unit": "nM"},
      {"measurement": "koff", "setting": "Evasin-1", "value": "0.00243 ± 0.61", "unit": "s⁻¹"},
      {"measurement": "kon", "setting": "Evasin-1", "value": "1.38e+07 ± 3.54", "unit": "M⁻¹ s⁻¹"}
    ]},
    {"binder": "CCL4 (ligand, human, UniProt P13236 24-92, looked up) APMGSDPPTACCFSYTARKLPRNFVVDYYETSSLCSQPAVVFQTKRSKQVCADPSESWVQEYVYDLELN", "values": [
      {"measurement": "Kd", "setting": "Evasin-1", "value": 0.51, "unit": "nM"},
      {"measurement": "koff", "setting": "Evasin-1", "value": "0.0022 ± 0.18", "unit": "s⁻¹"},
      {"measurement": "kon", "setting": "Evasin-1", "value": "4.29e+06 ± 2.58", "unit": "M⁻¹ s⁻¹"}
    ]},
    {"binder": "murine MIP-1β (ligand, mouse, UniProt P14097 24-92, looked up) APMGSDPPTSCCFSYTSRQLHRSFVMDYYETSSLCSKPAVVFLTKRGRQICANPSEPWVTEYMSDLELN", "values": [
      {"measurement": "Kd", "setting": "Evasin-1", "value": 0.15, "unit": "nM"},
      {"measurement": "koff", "setting": "Evasin-1", "value": "0.00058 ± 0.12", "unit": "s⁻¹"},
      {"measurement": "kon", "setting": "Evasin-1", "value": "3.84e+06 ± 1.42", "unit": "M⁻¹ s⁻¹"}
    ]},
    {"binder": "Evasin-3 (HEK) (natural protein, Rhipicephalus sanguineus, UniProt P0C8E8 21-86, looked up, also: extensively glycosylated) LVSTIESRTSGDGADNFDVVSCNKNCTSGQNECPEGCFCGLLGQNKKGHCYKIIGNLSGEPPVVRR", "values": [
      {"measurement": "Kd", "setting": "CXCL1", "value": 0.34, "unit": "nM"},
      {"measurement": "koff", "setting": "CXCL1", "value": "0.00142 ± 0.36", "unit": "s⁻¹"},
      {"measurement": "kon", "setting": "CXCL1", "value": "3.95e+06 ± 4.23", "unit": "M⁻¹ s⁻¹"},
      {"measurement": "Kd", "setting": "KC", "value": 2.25, "unit": "nM"},
      {"measurement": "koff", "setting": "KC", "value": "0.00144 ± 0.35", "unit": "s⁻¹"},
      {"measurement": "kon", "setting": "KC", "value": "640000 ± 0.58", "unit": "M⁻¹ s⁻¹"},
      {"measurement": "Kd", "setting": "MIP-2", "value": 0.4, "unit": "nM"},
      {"measurement": "koff", "setting": "MIP-2", "value": "0.00033 ± 0.11", "unit": "s⁻¹"},
      {"measurement": "kon", "setting": "MIP-2", "value": "790000 ± 0.9", "unit": "M⁻¹ s⁻¹"}
    ]},
    {"binder": "Evasin-3 (E. coli) (natural protein, Rhipicephalus sanguineus, UniProt P0C8E8 21-86, looked up) LVSTIESRTSGDGADNFDVVSCNKNCTSGQNECPEGCFCGLLGQNKKGHCYKIIGNLSGEPPVVRR", "values": [
      {"measurement": "Kd", "setting": "CXCL1", "value": 0.85, "unit": "nM"},
      {"measurement": "koff", "setting": "CXCL1", "value": "0.00222 ± 0.49", "unit": "s⁻¹"},
      {"measurement": "kon", "setting": "CXCL1", "value": "2.61e+06 ± 0.69", "unit": "M⁻¹ s⁻¹"},
      {"measurement": "Kd", "setting": "KC", "value": 5.78, "unit": "nM"},
      {"measurement": "koff", "setting": "KC", "value": "0.00185 ± 0.43", "unit": "s⁻¹"},
      {"measurement": "kon", "setting": "KC", "value": "320000 ± 0.17", "unit": "M⁻¹ s⁻¹"},
      {"measurement": "Kd", "setting": "MIP-2", "value": 0.64, "unit": "nM"},
      {"measurement": "koff", "setting": "MIP-2", "value": "0.00065 ± 0.25", "unit": "s⁻¹"},
      {"measurement": "kon", "setting": "MIP-2", "value": "1.02e+06 ± 0.56", "unit": "M⁻¹ s⁻¹"}
    ]},
    {"binder": "CCL3L1 (ligand, human, UniProt P16619 24-93, looked up) APLAADTPTACCFSYTSRQIPQNFIADYFETSSQCSKPSVIFLTKRGRQVCADPSEEWVQKYVSDLELSA", "values": [
      {"measurement": "Kd", "setting": "Evasin-1", "value": 0.05, "unit": "nM"},
      {"measurement": "koff", "setting": "Evasin-1", "value": "0.00067 ± 0.13", "unit": "s⁻¹"},
      {"measurement": "kon", "setting": "Evasin-1", "value": "1.32e+07 ± 2.9", "unit": "M⁻¹ s⁻¹"}
    ]},
    {"binder": "murine MIP-1α (ligand, mouse, UniProt P10855 24-92, looked up) APYGADTPTACCFSYSRKIPRQFIVDYFETSSLCSQPGVIFLTKRNRQICADSKETWVQEYITDLELNA", "values": [
      {"measurement": "Kd", "setting": "Evasin-1", "value": 0.08, "unit": "nM"},
      {"measurement": "koff", "setting": "Evasin-1", "value": "0.00118 ± 1.07", "unit": "s⁻¹"},
      {"measurement": "kon", "setting": "Evasin-1", "value": "1.56e+07 ± 16", "unit": "M⁻¹ s⁻¹"}
    ]}
  ]
}
